To fix the notation:
B1: Mineralocorticoid receptor, residues 600 to 675; numbered along this chain, P08235 (parent)
chain: SKICLVCGDEASGCHYGVVTCGSCKVFFKRAVEGQHNYLCAGRNDCIIDKIRRKNCPACRLQKCLQAGMNLGARKS

± gives the uncertainty stated by the source.

This passage reports abundance fitness results from the Human Domainome abundance scans (Beltran et al. 2025).

Variants of B1 are the subject of the data set. Put plainly: abundance fitness (aPCA) (normalised: wild type 0, dead -1); higher = more abundant; growth selection in yeast, the domain comes from the species named. Conditions: Homo sapiens.
As to Q62V, the abundance fitness is -0.022 ± 0.056.
Then Q62W, with -0.059 ± 0.081; and Q62S, with -0.049 ± 0.045.
Regarding Q62K, the abundance fitness was 0.046 ± 0.1.
Then E33K, with 0.044 ± 0.086; and E33S, with 0.008 ± 0.041; and E33M, with -0.049 ± 0.076.
In the case of E33P, the abundance fitness is -0.128 ± 0.048.
Consider E33F, for which the abundance fitness is -0.137 ± 0.057.
Then E33L, with -0.109 ± 0.041.
On to C40D, for which the abundance fitness was -0.819 ± 0.15.
For the variant C40Y, the abundance fitness is -0.737 ± 0.1.
C40G: the abundance fitness is -0.986 ± 0.16.
As to C40A, the abundance fitness is -0.816 ± 0.11.
In the case of C40F, the abundance fitness was -1.13 ± 0.28.
For the variant C40L, the abundance fitness is -0.847 ± 0.13.
The same measure for C40K: -0.73 ± 0.16; for C40T: -0.68 ± 0.22; for N55D: 0.017 ± 0.048.
Then N55C, with -0.032 ± 0.057; and N55H, with -0.038 ± 0.045; and N55I, with 0.009 ± 0.048.
The same measure for N55L: -0.021 ± 0.039; for N55Q: 0.013 ± 0.082.
As for S1I, the abundance fitness is -0.035 ± 0.11.
The same measure for S1A: -0.136 ± 0.063; for S1K: -0.123 ± 0.1; for S1L: -0.099 ± 0.062.
In the case of T20C, the abundance fitness was -0.062 ± 0.1.
In the case of T20R, the abundance fitness is -0.75 ± 0.085.
For T20D, the abundance fitness was -0.49 ± 0.24.
In the case of T20K, the abundance fitness was -0.727 ± 0.22.
The same measure for T20W: -0.325 ± 0.061; for T20F: -0.351 ± 0.25; for T20M: -0.194 ± 0.082.
The same measure for L65V: -0.087 ± 0.042; for L65M: -0.052 ± 0.05; for L65R: -0.055 ± 0.034.
Then L65Q, with 0.018 ± 0.054.
Consider G72Q, for which the abundance fitness was 0.053 ± 0.072.
The same measure for G72Y: -0.074 ± 0.067; for G72H: 0.032 ± 0.078.
Then G72I, with -0.02 ± 0.081; and G72F, with -0.134 ± 0.063.
The same measure for G68A: -0.382 ± 0.065.
Take G68F: the abundance fitness was -0.77 ± 0.25.
The same measure for G68T: -0.423 ± 0.092; for G68P: -0.451 ± 0.21; for G68R: -0.172 ± 0.039.
Then K29P, with -0.076 ± 0.074.
Consider Q66L, for which the abundance fitness is -0.112 ± 0.044.
Q66Y: the abundance fitness was -0.094 ± 0.11.
Consider Q66D, for which the abundance fitness was 0.018 ± 0.088.
The same measure for Q66F: -0.019 ± 0.067; for A11K: -0.101 ± 0.06; for A11Q: -0.037 ± 0.053.
In the case of A11T, the abundance fitness was -0.063 ± 0.064.
The same measure for A11E: -0.02 ± 0.057; for A11P: -0.001 ± 0.054; for A11L: -0.16 ± 0.039.
The same measure for Q35L: -0.094 ± 0.038.
For the variant Q35T, the abundance fitness was -0.077 ± 0.043.
The same measure for Q35A: -0.058 ± 0.044; for Q35S: -0.028 ± 0.038.
Then Q35E, with 0.069 ± 0.058.
Regarding Q35F, the abundance fitness was -0.129 ± 0.055.
The same measure for I3R: -0.225 ± 0.035; for I3P: -0.453 ± 0.06; for I3Q: -0.152 ± 0.05.
Consider I3E, for which the abundance fitness is -0.146 ± 0.055.
Regarding I3S, the abundance fitness was -0.128 ± 0.04.
I3T: the abundance fitness is -0.164 ± 0.056.
Consider I3V, for which the abundance fitness is -0.166 ± 0.041.
The same measure for I3Y: -0.027 ± 0.071; for R74L: -0.061 ± 0.044.
For R74E, the abundance fitness was 0.056 ± 0.05.
With R74T, the abundance fitness is 0.138 ± 0.063.
On to R74Y, for which the abundance fitness is -0.031 ± 0.069.
In the case of R74Q, the abundance fitness is -0.079 ± 0.057.
The same measure for R74F: -0.088 ± 0.061; for N70E: -0.035 ± 0.063.
Consider N70T, for which the abundance fitness was -0.04 ± 0.039.
Then N70M, with -0.044 ± 0.09.
Consider N70K, for which the abundance fitness was 0.058 ± 0.059.
The same measure for N70R: -0.014 ± 0.044; for V19A: 0.029 ± 0.048.
Then V19H, with -0.091 ± 0.087; and V19S, with 0.038 ± 0.053; and V19R, with -0.019 ± 0.038.
The same measure for V32E: -0.004 ± 0.22.
For V32G, the abundance fitness is -0.228 ± 0.19.
For V32F, the abundance fitness was -0.013 ± 0.077.
The same measure for V32K: -0.004 ± 0.18.
The same measure for V32R: -0.095 ± 0.082.
The same measure for V32W: -0.24 ± 0.14; for G42V: 0.005 ± 0.041.
As to K75A, the abundance fitness came out at 0.059 ± 0.052.
The same measure for K75V: 0.034 ± 0.049.
The same measure for K75P: 0.011 ± 0.062; for S23T: -0.164 ± 0.069; for S23I: -0.42 ± 0.37.
S76Q: the abundance fitness is -0.096 ± 0.21.
Consider S76R, for which the abundance fitness was -0.116 ± 0.057.
In the case of F28S, the abundance fitness is -0.361 ± 0.077.
Then F28E, with -0.749 ± 0.13.
For F28W, the abundance fitness was 0.037 ± 0.055.
The same measure for F28G: -0.647 ± 0.073.
The same measure for F28P: -1.21 ± 0.49; for F28C: -0.364 ± 0.21.
As to D45V, the abundance fitness is -0.074 ± 0.031.
The same measure for D45Y: -0.159 ± 0.044.
As to D45E, the abundance fitness worked out at 0.015 ± 0.042.
In the case of D45S, the abundance fitness was -0.092 ± 0.037.
Then D45L, with -0.094 ± 0.034; and D45Q, with 0.016 ± 0.053.
For D45A, the abundance fitness was -0.067 ± 0.033.
For the variant Y16C, the abundance fitness is -0.054 ± 0.083.
Then Y16F, with -0.053 ± 0.093; and Y16K, with -0.081 ± 0.057; and Y16P, with -0.125 ± 0.069.
Regarding G17F, the abundance fitness was -0.121 ± 0.086.
With G17H, the abundance fitness is -0.208 ± 0.15.
Consider G17M, for which the abundance fitness was -0.055 ± 0.057.
The same measure for G17A: -0.108 ± 0.043; for G17E: -0.007 ± 0.055; for K25C: -0.022 ± 0.063.
The same measure for K25P: -0.058 ± 0.072.
The same measure for K25G: -0.051 ± 0.04.
With K25Q, the abundance fitness is -0.006 ± 0.055.
As to C21Y, the abundance fitness is -0.731 ± 0.32.
Turning to C21W, the abundance fitness was -1.22 ± 0.26.
Then C21T, with -1.22 ± 0.26; and C21V, with -1.11 ± 0.16.
Then A31H, with -0.616 ± 0.35; and A31L, with -0.553 ± 0.38; and H36K, with -0.138 ± 0.054.
Then H36W, with -0.157 ± 0.039; and H36S, with 0.01 ± 0.03.
With V26W, the abundance fitness turned out to be 0.009 ± 0.046.
V26N: the abundance fitness is -0.123 ± 0.11.
For the variant V26Y, the abundance fitness was determined as 0.005 ± 0.095.
Then V26C, with -0.1 ± 0.071; and C59L, with -0.658 ± 0.062; and C59N, with -0.711 ± 0.092.
Then C59H, with -0.449 ± 0.068.
C59M: the abundance fitness was -0.913 ± 0.2.
As for C59F, the abundance fitness was -0.788 ± 0.13.
Consider D49I, for which the abundance fitness was -0.274 ± 0.047.
The same measure for D49N: -0.054 ± 0.043; for D49H: -0.276 ± 0.054.
The same measure for D49K: -0.167 ± 0.049; for D49Y: -0.211 ± 0.048; for D49S: -0.041 ± 0.028.
With L61T, the abundance fitness was -0.361 ± 0.07.
As to L61Q, the abundance fitness is -0.005 ± 0.063.
Then L61G, with -0.566 ± 0.049.
For the variant L61Y, the abundance fitness was 0.04 ± 0.074.
Then D9T, with -0.082 ± 0.058; and D9E, with -0.096 ± 0.056.
For D9A, the abundance fitness amounted to 0.048 ± 0.049.
The same measure for D9V: -0.001 ± 0.042; for D9K: -0.231 ± 0.078; for L39S: -0.05 ± 0.041.
Then L39Y, with -0.054 ± 0.043.
On to L39A, for which the abundance fitness is -0.093 ± 0.039.
Then L39D, with 0.048 ± 0.065.
For L39G, the abundance fitness was -0.045 ± 0.038.
